Experimental data taken from patent US20080305099.

Legend:
[1] = biological target: synthetic Aβ40 (UniProt P05067)
[2] = system: amylin
[3] = biological target: Aβ42 (UniProt P05067)
[4] = system: Aβ (length not stated)
[5] = system: insulin β-chain
[6] = system: ACTH (adrenocorticotropic hormone)

recombinant GCP-II protein purified from insect cells (Sf21)
MALDI-TOF of Aβ40 reacted with GCP-II protein at more than 25 ng/µL [1]: only one peak was observed at 2,167 which corresponds to Aβ18
MALDI-TOF of Aβ40 reacted with GCP-II protein for 20 hours [1]: two new peaks were observed at 3915 and 2662 in Aβ reacted with 0.5 ng/µM of GCP-II
MALDI-TOF of Aβ reacted with GCP-II inactivated by heating (boiled rGCP-II) [1]: Aβ was not degraded by the inactivated GCP-II
MALDI-TOF molecular weight after reaction with GCP-II at 37° C. for 15 hours [2]: amylin showed two peaks at 1500 and 2000 after being reacted with GCP-II
endogenous Aβ42 remaining (ELISA) in the medium of swAPP stable HEK293 colony #2 with 0, 0.5, 2.5 and 10 of rGCP-II [3]: the level of endogenous Aβ42 was decreased
Western blot (anti-Aβ antibody 6E10) of Aβ matured for 7 days after 20 hours with rGCP-II [4]: Aβ in oligomer form (multimer) was reduced faster than Aβ monomer
MALDI-TOF molecular weight after reaction with GCP-II at 37° C. for 15 hours [5]: characteristically not degraded by GCP-II
MALDI-TOF molecular weight after reaction with GCP-II at 37° C. for 15 hours [6]: characteristically not degraded by GCP-II
